The target in data set [1] is anti-σ factor (ELI_10225) from Erythrobacter litoralis HTCC2594 (Erythrobacter litoralis HTCC2594) (UniProt Q2N854). As to the kind of experiment: SEC-MALS. Background: Size exclusion chromatography separates by hydrodynamic size, large species first.
The data set “SEC-MALS” deals with the molecule itself. Kind of data set: SEC-MALS.

Positions count from the first letter of the chain named. Numbers in names are those of the source.

Here are results for four molecules from paper PMC3830641 (Biochemistry, 2013).

Broadly, the stoichiometry N is a count of units in the complex or per binding partner. For the molecule “phospho-EL_PhyR (EL_PhyR phosphorylated by EL368 and ATP) (from UniProt Q2N856 1-266) (natural protein)”, the stoichiometry N in data set [1] was found to be 1.

B1: EL368, LOV-histidine kinase from Erythrobacter litoralis HTCC2594 (enzyme, UniProt Q2NCA3 1-360, looked up)
chain: MPLKGEISAQAGREFDTSRLDLRAIIDPRDLRVDPTRLFLETTQQTRLAICISDPHQPDCPVVYVNQAFLDLTGYAREEIVGRNCRFLQGADTDPEQVRKLREGIAAERYTVVDLLNYRKDGIPFWNAVHVGPIYGEDGTLQYFYGSQWDITDIVAERRKAETQRRIAAELRHRTGNIFAVLNAIIGLTSRRERDVSEFADKLSERVSALASAHRMTIMDEPDQEAVAIDDLVTGVMKPYRNRFAERVTTSGPKIELGPRSVTALGLALHELATNAVKYGALSVDAGRVEISWSREDGDVTLVWQEQGGPTVSQEQSEPVKGNGTMLIDGMIASLTGSIERDFAAAGLQAKITLPVHQPE
As for B1, the “stoichiometry N” value in the data set “SEC-MALS” stood at 2.

B2: EL362, LOV-histidine kinase from Erythrobacter litoralis HTCC2594 (wild type, Arg 150) (enzyme, UniProt Q2N9L9 1-362, looked up)
chain: MDDQPTTRANRVGHPESSRQAYSSESGATHGSLAFPGASGLLFEQAMAQTRMAVCLTDPHQPDHPIVFCNAAFERLTGYEEKDIIGRNCRFLQGARTDESQVARIRDALAKEEVAVVELLNYRKDGSTFWNALHLGPIYDESGKLKYFFRSQWDVTDIHEARAEQRHAKAMAREVSHRLKNVFSVIAGIVNITGRSMDARPVASRINERVQALGRAYEPTLDEAFMGTIEVGQAIRAILAPYDPEGDRVSLEGNGVRTEPNAISSIGLTLHELASNAIKYGALSNETGTIDVSWHHERDDHDRRRLVIDWKESGGPTIEGPPETGGTGFDISETLLSYSNGTLEKRWDRDGLFVRIAIPIEQ
Regarding B2, the binding result in “SEC-MALS” is “binds”.

B3: EL362(R150G) (enzyme, Erythrobacter litoralis HTCC2594, UniProt Q2N9L9 1-362, looked up)
chain: B2 chain with R150G
B3: in “SEC-MALS”, the binding result is recorded as “binds”.
